This note sets out measurements from paper PMC4877568, “Structure-based site-directed photo-crosslinking analyses of multimeric cell-adhesive interactions of voltage-gated sodium channel β subunits” (Scientific Reports, 2016).

This data set deals with the molecule itself. As to the kind of experiment: crystal structure; X-ray crystallography of β4ex; antiparallel contacts between β4ex molecules in the crystal lattice; crystals from 30% (w/v) PEG 1500, sitting drop, 20 °C.

B1: mouse β4 subunit extracellular domain fragment (domain or fragment, UniProt Q7M729 30-160, looked up)
chain: SLEVSVGKATTIYAINGSSILLPCTFSSCYGFENLYFKWSYNNSETSRILIDGIVKNDKSDPKVRVKDDDRITLEGSTKEKTNNISILLSDLEFSDTGRYTCFVRNPKEKDLNNSATIFLQVVDKLEKVDN
notes: voltage-gated sodium channel β4 subunit, mouse, residues 30-160; amino acid numbering starts from the initiator methionine; His tag removed by TEV protease; contains all three Cys residues; also called β4ex; β4 extracellular domain; source: Escherichia coli cell-free method, purified (HisTrap, TEV cleavage, Mono Q, Superdex 75); not shown: histidine tag, N-terminal, cleaved
With B1, the binding result was “binds”.
